Data as given in PMC10786891, “Massively parallel profiling of RNA-targeting CRISPR-Cas13d”.
Numbering of substitutions follows the chain as printed. In names and notes the source's numbering stands.

T1: EsCas13d, nuclease-dead (Eubacterium siraeum, UniProt B0MS50, R295A;H300A;R849A;H854A)
T1 sequence: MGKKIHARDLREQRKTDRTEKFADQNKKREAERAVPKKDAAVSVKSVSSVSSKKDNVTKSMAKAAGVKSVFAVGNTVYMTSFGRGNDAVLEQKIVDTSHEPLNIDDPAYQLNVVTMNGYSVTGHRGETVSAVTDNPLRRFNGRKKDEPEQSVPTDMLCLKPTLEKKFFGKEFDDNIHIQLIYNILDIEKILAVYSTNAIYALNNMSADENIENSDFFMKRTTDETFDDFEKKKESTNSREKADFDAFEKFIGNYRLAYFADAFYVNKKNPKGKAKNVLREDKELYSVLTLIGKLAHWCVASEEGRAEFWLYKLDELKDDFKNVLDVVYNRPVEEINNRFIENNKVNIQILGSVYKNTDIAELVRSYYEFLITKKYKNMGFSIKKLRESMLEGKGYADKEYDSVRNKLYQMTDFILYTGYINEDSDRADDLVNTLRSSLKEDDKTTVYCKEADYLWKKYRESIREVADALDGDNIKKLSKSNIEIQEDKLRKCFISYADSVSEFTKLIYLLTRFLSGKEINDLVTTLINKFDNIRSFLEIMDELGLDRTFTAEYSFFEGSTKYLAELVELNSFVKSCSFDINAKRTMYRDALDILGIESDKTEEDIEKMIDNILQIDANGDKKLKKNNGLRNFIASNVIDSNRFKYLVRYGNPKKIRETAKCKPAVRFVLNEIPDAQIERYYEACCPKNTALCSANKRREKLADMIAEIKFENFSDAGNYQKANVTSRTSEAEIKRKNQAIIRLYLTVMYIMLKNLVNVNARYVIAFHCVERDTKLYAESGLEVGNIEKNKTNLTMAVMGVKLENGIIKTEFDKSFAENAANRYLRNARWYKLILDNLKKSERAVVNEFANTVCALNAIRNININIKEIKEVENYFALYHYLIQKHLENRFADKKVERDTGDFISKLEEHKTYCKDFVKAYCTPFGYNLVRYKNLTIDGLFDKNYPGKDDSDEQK

B1: target 1 G5U,U11C (mixed)
RNA 1: CACCCGUGCAAAAAUGCAGGGGUCUAAAACUGAGCGGAUAACCUCUCUAUGG
RNA 2: GGGAAUGGAUCCACAUCUACGAAUUCGUACCAUAGAGAGGCUAUCCUCUCACCGAGAUCGGAAGAGCACACGU
B2: target 1 insA 3' of 22,insC 3' of 22 (mixed)
RNA 1: B1 RNA 1
RNA 2: GGGAAUGGAUCCACAUCUACGAAUUCGUACACCAUAGAGAGGUUAUCCGCUCACCGAGAUCGGAAGAGCACACGU
B3: target 1 insA 3' of 12,insU 3' of 12 (mixed)
RNA 1: B1 RNA 1
RNA 2: B2 RNA 2 with A31C, C32A, C33U, U35G, A40G, G41A, G42U
B4: target 1 insC 3' of 10,insG 3' of 9 (mixed)
RNA 1: B1 RNA 1
RNA 2: GGGAAUGGAUCCACAUCUACGAAUUCGUACCAUAGAGAGGUUCAGUCCGCUCACCGAGAUCGGAAGAGCACACGU
B5: target 1 U3A,G5C (mixed)
RNA 1: B1 RNA 1
RNA 2: B1 RNA 2 with C41U, U47C, U49A
B6: target 1 insA 3' of 11,insG 3' of 1 (mixed)
RNA 1: B1 RNA 1
RNA 2: GGGAAUGGAUCCACAUCUACGAAUUCGUACCAUAGAGAGGUAUAUCCGCUCAGCCGAGAUCGGAAGAGCACACGU
B7: target 1 U10A,U11A (mixed)
RNA 1: B1 RNA 1
RNA 2: B1 RNA 2 with C41A, U42A, U47G
B8: target 1 A1U,C2A (mixed)
RNA 1: B1 RNA 1
RNA 2: B1 RNA 2 with C41U, U47G, C50A, A51U
B9: target 1 G13C,A14U (mixed)
RNA 1: B1 RNA 1
RNA 2: B1 RNA 2 with A38U, G39C, C41U, U47G
B10: target 1 G17U,A20C (mixed)
RNA 1: B1 RNA 1
RNA 2: B1 RNA 2 with A32C, G35U, C41U, U47G
B11: target 1 insC 3' of 13,insC 3' of 5 (mixed)
RNA 1: B1 RNA 1
RNA 2: B6 RNA 2 with G40C, U41G, A42U, U50C, C51U, A52C, G53A
B12: target 1 insG 3' of 3,insG 3' of 2 (mixed)
RNA 1: B1 RNA 1
RNA 2: B4 RNA 2 with C43A, A44U, G45C, U46C, C47G, G49U, C50G, U51C, C52G
B13: target 1 complement block 1-7 (mixed)
RNA 1: B1 RNA 1
RNA 2: B1 RNA 2 with C41U, C45G, C46G, U47C, C48G, U49A, C50G, A51U
B14: target 1 insA 3' of 11,insU 3' of 1 (mixed)
RNA 1: B1 RNA 1
RNA 2: B6 RNA 2 with G53U
B15: target 1 A20C (mixed)
RNA 1: B1 RNA 1
RNA 2: B1 RNA 2 with A32C, C41U, U47G
B16: target 1 G17U,U19G (mixed)
RNA 1: B1 RNA 1
RNA 2: B1 RNA 2 with U33G, G35U, C41U, U47G
B17: target 1 insC 3' of 8,insG 3' of 6 (mixed)
RNA 1: B1 RNA 1
RNA 2: B4 RNA 2 with C43A, A44U, G45C, U46C, C48G
B18: target 1 insA 3' of 15,insG 3' of 3 (mixed)
RNA 1: B1 RNA 1
RNA 2: B6 RNA 2 with G39A, U41G, A42U, C51G, A52C, G53A
B19: target 1 insC 3' of 14,insG 3' of 4 (mixed)
RNA 1: B1 RNA 1
RNA 2: B6 RNA 2 with G39C, U41G, A42U, U50G, C51U, A52C, G53A
B20: target 1 complement block 1-9 (mixed)
RNA 1: B1 RNA 1
RNA 2: GGGAAUGGAUCCACAUCUACGAAUUCGUACCAUAGAGAGGUUUAGGCGAGUCCGAGAUCGGAAGAGCACACGU
B21: target 1 insG 3' of 18,insA 3' of 12 (mixed)
RNA 1: B1 RNA 1
RNA 2: B4 RNA 2 with A36G, G37A, A38G, G39A, U41G, U42A, C43U, A44U, G45A
B22: target 1 U11A,G13U (mixed)
RNA 1: B1 RNA 1
RNA 2: B1 RNA 2 with G39U, C41A, U47G
B23: target 1 C2G,U3C (mixed)
RNA 1: B1 RNA 1
RNA 2: B1 RNA 2 with C41U, U47G, U49C, C50G
B24: target 1 insU 3' of 20,insC 3' of 18 (mixed)
RNA 1: B1 RNA 1
RNA 2: B2 RNA 2 with A31C, C32A, C33U, A34U, U35A, A36C
B25: target 1 insC 3' of 16,insC 3' of 1 (mixed)
RNA 1: B1 RNA 1
RNA 2: B6 RNA 2 with G37C, A38G, G39A, U41G, A42U, G53C
B26: target 1 U3G,G5U (mixed)
RNA 1: B1 RNA 1
RNA 2: B1 RNA 2 with C41U, U49G
B27: target 1 A20C,C21A (mixed)
RNA 1: B1 RNA 1
RNA 2: B1 RNA 2 with C31A, A32C, C41U, U47G
B28: target 1 insC 3' of 15,insA 3' of 10 (mixed)
RNA 1: B1 RNA 1
RNA 2: B4 RNA 2 with A38C, G39A, U41G, C43U, G45A
B29: target 1 insC 3' of 10,insC 3' of 8 (mixed)
RNA 1: B1 RNA 1
RNA 2: B4 RNA 2 with G45U, U46C
B30: target 1 A1U,C4A (mixed)
RNA 1: B1 RNA 1
RNA 2: B1 RNA 2 with C41U, U47G, C48A, A51U
B31: target 1 C6G,G17A (mixed)
RNA 1: B1 RNA 1
RNA 2: B1 RNA 2 with G35A, C41U, C46G, U47G
B32: target 1 insA 3' of 11,insC 3' of 1 (mixed)
RNA 1: B1 RNA 1
RNA 2: B6 RNA 2 with G53C
B33: target 1 insU 3' of 17,insU 3' of 7 (mixed)
RNA 1: B1 RNA 1
RNA 2: B4 RNA 2 with A36U, G37A, A38G, G39A, U41G, C43U, G45U, U46C, C47U
B34: target 1 C4G,C21A (mixed)
RNA 1: B1 RNA 1
RNA 2: B1 RNA 2 with C31A, C41U, U47G, C48G

Biological target: T1, EsCas13d, nuclease-dead
Experiment: crRNA (strand 1, pre-loaded); Mg2+; 40 mM Tris-HCl pH 7.5, 150 mM NaCl, 6 mM MgCl2, 1 mM DTT, 0.1% Tween-20, 0.2 mg/ml BSA; 25 C; 10 min per concentration, then washed
Settings: tags: His6-TwinStrep-SUMO cleaved; N-terminal SNAP kept (SNAP-Surface 488); label: 3' end held by stalled T7 RNA polymerase

Binder	Kd [nM]
B1	61 ± 8
B2	8.92 ± 0.33
B3	58 ± 16
B4	17.1 ± 1
B5	16.9 ± 0.9
B6	20.8 ± 1
B7	11.8 ± 0.4
B8	8.4 ± 0.7
B9	13.1 ± 1.1
B10	88 ± 21
B11	16.9 ± 1.2
B12	6.2 ± 0.4
B13	23.9 ± 2.4
B14	19 ± 1.3
B15	34.2 ± 2.5
B16	80 ± 40
B17	17.1 ± 1.3

Binder	Kd [nM]
B18	5.1 ± 0.4
B19	21 ± 1.2
B20	9.5 ± 0.7
B21	73 ± 32
B22	34.2 ± 2.2
B23	8.6 ± 0.7
B24	36 ± 4
B25	77 ± 32
B26	14.1 ± 0.5
B27	5.63 ± 0.34
B28	65 ± 11
B29	63 ± 13
B30	5.92 ± 0.27
B31	48 ± 6
B32	15.8 ± 1.1
B33	25.4 ± 1
B34	25.5 ± 2.8
